{"source": "IntAct's records for PubMed 21216997", "key": {"[1]": {"molecular_target": "ftsz_ecoli ftsZ (UniProt P0A9A6)", "sequence (P0A9A6 whole entry)": "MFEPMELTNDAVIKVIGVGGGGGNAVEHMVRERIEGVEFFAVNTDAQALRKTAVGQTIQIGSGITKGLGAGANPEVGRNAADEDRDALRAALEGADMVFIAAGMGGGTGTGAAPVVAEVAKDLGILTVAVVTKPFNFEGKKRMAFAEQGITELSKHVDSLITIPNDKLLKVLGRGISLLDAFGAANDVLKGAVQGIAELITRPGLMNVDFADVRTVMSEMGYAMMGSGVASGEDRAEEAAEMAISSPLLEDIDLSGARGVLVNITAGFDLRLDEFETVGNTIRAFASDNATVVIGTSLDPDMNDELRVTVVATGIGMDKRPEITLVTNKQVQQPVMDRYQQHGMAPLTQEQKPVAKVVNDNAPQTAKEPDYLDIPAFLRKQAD"}, "[2]": {"molecular_target": "ftsz_ecoli ftsZ (UniProt P0A9A6)", "remark": "listed apart in the source"}}}
{"substance": "Cell division protein ZapC (Escherichia coli (strain K12)), P75862 L22P", "values": [{"measurement": "effect of a mutation on the interaction", "setting": "[1]", "result": "decreasing interaction strength"}, {"measurement": "effect of a mutation on the interaction", "setting": "[2]", "result": "disrupting interaction"}]}
